The source of these data is patent publication US7786356B2, “Method for the production of calendic acid, a fatty acid containing delta 8,10,12 conjugated double bonds and related fatty acids having a modification at the delta 9 position” (E.I. du Pont de Nemours and Company, priority 1999, dated 2010).

Assay [1] concerns Saccharomyces cerevisiae INVSc1 cells. The assay is described as follows: Expression of CalFad2-1 and CalFad2-2 in Saccharomyces cerevisiae. The following applies: cells grown in media containing 2 mM linoleic acid, 4 days at 16° C.; (w/w) of total fatty acids. The class given is cell-based. From the text:
The Calendula officinalis clones CalFad2-1 and CalFad2-2 were digested with the restriction enzymes EcoRI and XhoI. The resulting DNA fragments containing the entire cDNA inserts were purified by agarose gel electrophoresis. The purified cDNAs were ligated into the EcoRI and XhoI sites of the Saccharomyces cerevisiae expression vector pYES2 (Invitrogen) using T4 DNA ligase (New England Biolabs). The resulting plasmids pYes2/CalFad2-1 and pYes2/CalFad2-2 were introduced into Saccharomyces cerevisiae INVSc1 (Invitrogen Corp.) cells by lithium acetate-mediated transformation [Sherman F, Fink G R, Hicks J B, Methods in Yeast Genetics: A Laboratory Course Manual, Cold Spring Harbor Lab. Press, Plainview, N.Y. (1987)]. Transformed cells were selected for their ability to grow in the absence of uracil. […] In cells grown in media containing linoleic acid, calendic acid (18:3Δ^8trans,10trans,12cis) was detected in amounts of up to 2.9% (w/w) of the total fatty acids of cultures expressing CalFad2-1 (FIG. 3) and in amounts of up to 0.2% of the total fatty acids of cultures expressing CalFad2-2. […] No calendic acid was detected in cultures harboring the expression vector without a cDNA insert or in cells grown in the absence of exogenous linoleic acid. […]

In a further assay the test system is tobacco callus. The assay is described as follows: Expression of CalFad2-1 in tobacco callus, GC/GC-MS of fatty acid methyl esters. Type of assay: cell-based, Nicotiana tabacum cv. Xanthi. Conditions: stably transformed tobacco callus, 35S promoter. From the text:
To characterize the activity of the CalFad2-1 in transgenic plant cells, the cDNA (ecs1c.pk009.n14) encoding this enzyme was expressed in tobacco callus with the gene under control of the cauliflower mosaic virus 35S promoter. The open-reading frame of the cDNA for CalFad2-1 was amplified by PCR to generate flanking […] restriction enzyme sites for cloning into the plant expression vector. The sequence of the sense oligonucleotide used in the amplification reaction was 5′-tttgagctc[…]-3′ (SEQ ID NO:16), and the sequence of the antisense oligonucleotide was 5′-tttggatcc[…]-3′ (SEQ ID NO: 17) [Note: the bases in lower case contain the added restriction sites, which are underlined, and flanking sequence to facilitate restriction enzyme digestion]. The design of the PCR primers was based on the sequence of the CalFad2-1 cDNA shown in SEQ ID NO:1. […]
Kanamycin-resistant tobacco callus that resulted from the transformation was examined for the presence of calendic acid arising from the activity of CalFad2-1. […] The recovered fatty acid methyl esters were then analyzed using a Hewlett-Packard 6890 chromatograph fitted with an Omegawax 320 column (30 m×0.32 mm inner diameter; Supelco). […] Fatty acid methyl prepared from the transgenic tobacco callus was analyzed with an HP6890 interfaced with a HP5973 (Hewlett-Packard) mass selective detector. […]

B1: CalFad2-1: Calendula officinalis fatty acid modifying enzyme (cDNA SEQ ID NO:1, protein SEQ ID NO:2) forming conjugated double bonds at delta-9 position (protein, listed as Calendula officinalis)
chain: MGKGASNKKVLERVPITKPPFEYNDLKKAVPPHCFSRPLFRSFYFLLHDIIVTCILFYVASNYIPMLPGFLSYIVWPVYWISQGVFLGRLWMIGHECGHHSFSNYRWVDDSVGFLIHTATLTPYFSFKYSHRNHHAHTNSMEYDEVHIPKRKSEALDLYFEFLGNNPMGLMITMLCKLTFGYAAYIMFNYTGKKHKSGGLASHFYPQSPLFNDSERNHVLFSDVGICIVLYACYRIVMVTGAMSAFYVYGIPWVIMSAILFAATYLQHTHPSIPHYDTTEWNWLRGALSTIDRDLGFFNMNKTHYHVIHHLFPVIPEYHAQEATEAIKPILGQYYKYDGTPFLKALWREMKDCIYVESDQGQKKQGIYWFKNKI
For the molecule B1, the “calendic acid (18:3Δ8trans,10trans,12cis), amount of the total fatty acids” value in assay [1] is given as “up to 2.9%”. Further, the “methyl calendic acid, amount of the total fatty acids” value in the assay on tobacco callus is listed as “up to 11.4 % of the total fatty acids”.
